# B1: HisR from F. nucleatum ATCC 23726 (Fusobacterium nucleatum subsp. nucleatum ATCC 23726) (protein)
# chain: MDGKVQVLDFIKINPAGNITILIDNFDIYDKNIPKLSEEIMKETNLYAEQVGFIKEKHLQMMGGEFCGNASRSFASLLAFRDKDFSEQKNYSITCSGESEVLDVDVRTDGAKNKFLAKIKMPKFISLEEISIDEYKLGLVRFSGISHFIFNIKENKETSFENIIDLVKKYLSNEDYSAFGIMFFDKDNLSMKPYVYVKELESGIYENSCASGTTALGYYLKKYKNLDRAKVVQPNGWLEYIIENDEMYIDGPVEIVAEGKVYI
# B2: HisR (FN1732, predicted DapF) from F. nucleatum ATCC 25586 (Fusobacterium nucleatum subsp. nucleatum ATCC 25586) (protein)
# chain: MDRKVQVLDFIKINPAGNITILIDNFDIYDKNIPKLSEEIMKETNLYAEQVGFIKDSHLQMMGGEFCGNASRAFASLLAFRDKDFSKQKNYNITCSGESKVLDVDVRNDGAKNKFLAKIKMPKFLSLEEINVDEYKLGLVRFSGINHFIFNIKENKETSFENIIDLVKKYLSNEEYSAFGIMFFDSDNLSMKPYVYVKEVGSGVYENSCASGTTALGYYLKKCKNLDRAKIVQPNGWLEYIIENDEMYIDGPVEIIAEGKIYIGK
# notes: C-terminal hexahistidine tag, codon-optimized gene in pET-24b(+), expressed in E. coli BL21(DE3), Ni-NTA purified; homodimer
# Legend:
# [1] = substrate: N[C@H](Cc1c[nH]cn1)C(=O)O; test: purified protein; format: biochemical, Fusobacterium nucleatum; details: 20 mM NaH2PO4, 100 mM NaCl, pH 7.5, 25 °C
# [2] = substrate: N[C@@H](Cc1c[nH]cn1)C(=O)O; test: purified protein; format: biochemical, Fusobacterium nucleatum; details: 20 mM NaH2PO4, 100 mM NaCl, pH 7.5, 25 °C
Protein,Km [1],kcat [1],kcat/Km [1],Km [2],kcat [2],kcat/Km [2]
B1,18 mM,64 s⁻¹,4000 M⁻¹ s⁻¹,5 mM,42 s⁻¹,9000 M⁻¹ s⁻¹
B2,24 mM,250 s⁻¹,10000 M⁻¹ s⁻¹,4 mM,74 s⁻¹,20000 M⁻¹ s⁻¹
